Experimental data reported in paper PMC3501490 (PLoS ONE, 2012).

Biological target: PI3K p85 SH2 domains
Test: SPR (BIAcore 3000), PI3K p85 SH2 domains
Assay type: binding
Conditions: HBS pH 7.4, 37°C, n = 3
Method: Experiments were conducted on a BIAcore™ 3000 in HBS buffer (0.01 M HEPES, pH 7.4, containing 0.15 M NaCl, 3 mM EDTA, and 0.005% v/v P-20, GE Life Sciences, Amersham, UK). Streptavidin was coupled to a research grade CM5 chip (GE Life Sciences, Amersham, UK) as previously described, [13]. Protein-peptide interactions were carried out a rate of 10 µl/min at a constant temperature of 37°C to more accurately reflect physiological conditions. Biotinylated peptides were bound to the streptavidin-coated CM5 chips at 37°C to between 25–50 RU [14]. Purified monomeric SH2 domains were passed over the immobilised peptides at a range of concentrations. Anti-phosphotyrosine monoclonal antibody (Sigma, Poole, U.K.) was passed over the chip to saturation at the end of each experiment to verify peptide coverage on the chip. Binding affinities for the single ITIM/ITSM peptides were determined by plotting equilibrium binding measurements (RU) against SH2 domain protein concentration (Origin 8, OriginLab, MA, USA). KD was defined as the concentration of SH2 protein that gave half maximal binding to the peptide. For the 60-mer peptides, SH2 domains were passed over the chip surface at 50 µl/min. KD was determined as Koff/Kon, which were determined using both GraphPad Prism 5.0 (GraphPad, La Jolla, CA, USA) and BIAevaluation Software (GE Life Sciences, Amersham,UK). […]

Kd: ~1000 nM
B1: G6B-b: inhibitory platelet receptor; affinities measured with its dual phosphopeptide (protein, UniProt O95866 18-241, looked up)
Megakaryocyte and platelet …: NPGASLDGRPGDRVNLSCGGVSHPIRWVWAPSFPACKGLSKGRRPILWASSSGTPTVPPLQPFVGRLRSLDSGIRRLELLLSAGDSGTFFCKGRHEDESRTVLHVLGDRTYCKAPGPTHGSVYPQLLIPLLGAGLVLGLGALGLVWWLHRRLPPQPIRPLPRFAPLVKTEPQRPVKEEEPKIPGDLDQEPSLLYADLDHLALSRPRRLSTADPADASTIYAVVV
